# Laboratory results reported in patent US20100331256.
# Where “and” joins values, the source holds several entries; their conditions need not be identical. Equal values may be shown once.
# T1: Analog AC: CNP22, K4R, G8T
# T1 chain: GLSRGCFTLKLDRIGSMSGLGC
# T2: PEO12-GANRR-CNP22(K4R)
# T2 chain: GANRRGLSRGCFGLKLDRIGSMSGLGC
# T3: Analog BM: CNP53
# T3 chain: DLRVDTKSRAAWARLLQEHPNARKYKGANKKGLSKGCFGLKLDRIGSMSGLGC
# T4: Analog CL: GVPQVSTSTGANQQ-CNP22, K4R (HSA fragment)
# T4 chain: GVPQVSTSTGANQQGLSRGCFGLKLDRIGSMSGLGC
# T5: Analog BL: QEHPNARKYKGANKK-CNP22 (CNP37)
# T5 chain: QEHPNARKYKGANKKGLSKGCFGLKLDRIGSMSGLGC
# T6: PEO12-CNP22
# T6 chain: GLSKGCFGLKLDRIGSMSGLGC
# T7: Analog AV: Pentanoic acid (N-term.)-CNP22, G1E, K4E (not fully specified)
# T7 chain: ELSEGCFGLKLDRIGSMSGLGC
# T8: PEO24-CNP22
# T8 chain: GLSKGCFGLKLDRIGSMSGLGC
# T9: Analog CC: DLRVDTKSRAAWAR-CNP22
# T9 chain: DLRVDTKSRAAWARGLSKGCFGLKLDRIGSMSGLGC
# T10: Analog AT: CNP22, G1E, K4E
# T10 chain: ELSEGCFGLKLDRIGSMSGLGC
# T11: wild-type C-type natriuretic peptide 22 (CNP22)
# T11 chain: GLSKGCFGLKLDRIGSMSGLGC
# T12: PEG1K-GANRR-CNP22(K4R)
# T12 chain: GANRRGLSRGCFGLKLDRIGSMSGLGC
# T13: Analog N: D-CNP22 (all D-amino acids)
# T13 chain: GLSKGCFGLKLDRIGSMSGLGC
# T14: Analog X: CNP22, K4G, 3-methyl-F7
# T14 chain: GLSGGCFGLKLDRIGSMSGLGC
# T15: Analog V: CNP22, K4G, 3,4-dichloro-F7
# T15 chain: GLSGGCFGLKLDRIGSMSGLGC
# T16: PEO24-GANRR-CNP22(K4R)
# T16 chain: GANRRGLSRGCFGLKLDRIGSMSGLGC
# T17: PEG1K-CNP22
# T17 chain: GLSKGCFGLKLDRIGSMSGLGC
# T18: PEO12-R-CNP22(K4R)
# T18 chain: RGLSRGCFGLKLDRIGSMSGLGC
# T19: Analog BB: Heptanoic acid (N-term.)-CNP22, G1E
# T19 chain: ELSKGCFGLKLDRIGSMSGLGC
# T20: Analog G: CNP22, 3-chloro-F7
# T20 chain: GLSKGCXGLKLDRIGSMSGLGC
# T21: PEG20K-CNP22
# T21 chain: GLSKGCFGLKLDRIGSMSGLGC
# T22: Analog B: CNP22, N-methyl-F7 (methylated amide)
# T22 chain: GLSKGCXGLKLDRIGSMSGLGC
# T23: Analog F: CNP22, t-butyl-G8
# T23 chain: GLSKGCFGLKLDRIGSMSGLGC
# T24: Analog L: CNP22, N-methyl-L9, N-methyl-L11, N-methyl-L20
# T24 chain: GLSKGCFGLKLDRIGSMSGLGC
# T25: PEO4-(PEO12)3 (branched)-CNP22
# T25 chain: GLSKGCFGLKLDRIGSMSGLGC
# T26: Analog BK: CNP22, K4R, G15S
# T26 chain: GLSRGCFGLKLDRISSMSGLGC
# T27: Analog K: CNP22, N-methyl-L9, N-methyl-L20
# T27 chain: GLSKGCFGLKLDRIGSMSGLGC
# T28: PEG5K-CNP22
# T28 chain: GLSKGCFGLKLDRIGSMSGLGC
# T29: PEG2K-CNP22
# T29 chain: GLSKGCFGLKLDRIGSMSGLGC
# T30: Analog AY: GANRR-CNP22, K4R (CNP-27)
# T30 chain: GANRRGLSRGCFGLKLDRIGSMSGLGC
# T31: Analog E: CNP22, D-F7 (D-Phe)
# T31 chain: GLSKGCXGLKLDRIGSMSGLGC
# T32: Analog P: CNP22, K4G
# T32 chain: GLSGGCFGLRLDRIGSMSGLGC
# T33: (PEO12)-Biotin-CNP22
# T33 chain: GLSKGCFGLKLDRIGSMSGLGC
# T34: Analog AW: Heptanoic acid (N-term.)-CNP22, G1E, K4E
# T34 chain: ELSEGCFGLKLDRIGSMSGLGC
# T35: PEO12-GANPR-CNP22(K4R)
# T35 chain: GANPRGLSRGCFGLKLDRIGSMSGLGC
# T36: Analog AH: CNP22, K4R
# T36 chain: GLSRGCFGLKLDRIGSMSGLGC
# T37: Analog BJ: CNP22, K4R, G15N
# T37 chain: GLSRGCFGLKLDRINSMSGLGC
# T38: Analog CF: GQPREPQVYTLPPS-CNP22 (IgG1(Fc) fragment)
# T38 chain: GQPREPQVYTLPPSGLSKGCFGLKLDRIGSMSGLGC
# T39: Analog AZ: R-CNP22, K4R
# T39 chain: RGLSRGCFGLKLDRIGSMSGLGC
# T40: Analog H: CNP22, Beta-2-F7 (3-amino-2-phenylpropionyl)
# T40 chain: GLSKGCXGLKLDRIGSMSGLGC
# T41: Analog BA: ER-CNP22, K4R
# T41 chain: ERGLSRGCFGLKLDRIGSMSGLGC
# T42: PEG2K-CNP17
# T42 chain: CFGLKLDRIGSMSGLGC
# T43: Analog M: CNP22, N-methyl-L9, N-methyl-L11
# T43 chain: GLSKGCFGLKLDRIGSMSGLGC
# T44: Analog CS: GQEHPNARKYKGANPK-CNP22 (modified CNP37) (not fully specified)
# T44 chain: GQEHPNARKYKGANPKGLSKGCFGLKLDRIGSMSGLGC
# T45: Analog A: CNP22, C6-CH2-NH (reduced carbonyl)
# T45 chain: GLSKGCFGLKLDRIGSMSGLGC
# T46: Analog CK: GQPREPQVYTGANQQ-CNP22, K4R (IgG1 fragment)
# T46 chain: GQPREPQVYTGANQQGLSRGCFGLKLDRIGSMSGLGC
# T47: Analog CG: GANSS-CNP22, K4R
# T47 chain: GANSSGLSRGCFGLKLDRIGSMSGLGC
# B1: recombinant human neutral endopeptidase (NEP) (protein)
# chain: DDGICKSSDCIKSAARLIQNMDATTEPCTDFFKYACGGWLKRNVIPETSSRYGNFDILRDELEVVLKDVLQEPKTEDIVAVQKAKALYRSCINESAIDSRGGEPLLKLLPDIYGWPVATENWEQKYGASWTAEKAIAQLNSKYGKKVLINLFVGTDDKNSVNHVIHIDQPRLGLPSRDYYECTGIYKEACTAYVDFMISVARLIRQEERLPIDENQLALEMNKVMELEKEIANATAKPEDRNDPMLLYNKMTLAQIQNNFSLEINGKPFSWLNFTNEIMSTVNISITNEEDVVVYAPEYLTKLKPILTKYSARDLQNLMSWRFIMDLVSSLSRTYKESRNAFRKALYGTTSETATWRRCANYVNGNMENAVGRLYVEAAFAGESKHVVEDLIAQIREVFIQTLDDLTWMDAETKKRAEEKALAIKERIGYPDDIVSNDNKLNNEYLELNYKEDEYFENIIQNLKFSQSKQLKKLREKVDKDEWISGAAVVNAFYSSGRNQIVFPAGILQPPFFSAQQSNSLNYGGIGMVIGHEITHGFDDNGRNFNKDGDLVDWWTQQSASNFKEQSQCMVYQYGNFSWDLAGGQHLNGINTLGENIADNGGLGQAYRAYQNYIKKNGEEKLLPGLDLNHKQLFFLNFAQVWCGTYRPEYAVNSIKTDVHSPGNFRIIGTLQNSAEFSEAFHCRKNSYMNPEKKCRVW
# Legend:
# [1] = biological target: T1, Analog AC: CNP22, K4R, G8T
# [2] = biological target: T2, PEO12-GANRR-CNP22(K4R)
# [3] = biological target: T3, Analog BM: CNP53
# [4] = biological target: T4, Analog CL: GVPQVSTSTGANQQ-CNP22, K4R …
# [5] = biological target: T5, Analog BL: QEHPNARKYKGANKK-CNP22 (CNP37)
# [6] = biological target: T6, PEO12-CNP22
# [7] = biological target: T7, Analog AV: Pentanoic acid …
# [8] = biological target: T8, PEO24-CNP22
# [9] = biological target: T9, Analog CC: DLRVDTKSRAAWAR-CNP22
# [10] = biological target: T10, Analog AT: CNP22, G1E, K4E
# [11] = biological target: T11, wild-type C-type natriuretic peptide 22 …
# [12] = biological target: T12, PEG1K-GANRR-CNP22(K4R)
# [13] = biological target: T13, Analog N: D-CNP22 (all D-amino acids)
# [14] = biological target: T14, Analog X: CNP22, K4G, 3-methyl-F7
# [15] = biological target: T15, Analog V: CNP22, K4G, 3,4-dichloro-F7
# [16] = biological target: T16, PEO24-GANRR-CNP22(K4R)
# [17] = biological target: T17, PEG1K-CNP22
# [18] = biological target: T18, PEO12-R-CNP22(K4R)
# [19] = biological target: T19, Analog BB: Heptanoic acid …
# [20] = biological target: T20, Analog G: CNP22, 3-chloro-F7
# [21] = biological target: T21, PEG20K-CNP22
# [22] = biological target: T22, Analog B: CNP22, N-methyl-F7 …
# [23] = biological target: T23, Analog F: CNP22, t-butyl-G8
# [24] = biological target: T24, Analog L: CNP22, N-methyl-L9, …
# [25] = biological target: T25, PEO4-(PEO12)3 (branched)-CNP22
# [26] = biological target: T26, Analog BK: CNP22, K4R, G15S
# [27] = biological target: T27, Analog K: CNP22, N-methyl-L9, …
# [28] = biological target: T28, PEG5K-CNP22
# [29] = biological target: T29, PEG2K-CNP22
# [30] = biological target: T30, Analog AY: GANRR-CNP22, K4R (CNP-27)
# [31] = biological target: T31, Analog E: CNP22, D-F7 (D-Phe)
# [32] = biological target: T32, Analog P: CNP22, K4G
# [33] = biological target: T33, (PEO12)-Biotin-CNP22
# [34] = biological target: T34, Analog AW: Heptanoic acid …
# [35] = biological target: T35, PEO12-GANPR-CNP22(K4R)
# [36] = biological target: T36, Analog AH: CNP22, K4R
# [37] = biological target: T37, Analog BJ: CNP22, K4R, G15N
# [38] = biological target: T38, Analog CF: GQPREPQVYTLPPS-CNP22 …
# [39] = biological target: T39, Analog AZ: R-CNP22, K4R
# [40] = biological target: T40, Analog H: CNP22, Beta-2-F7 …
# [41] = biological target: T41, Analog BA: ER-CNP22, K4R
# [42] = biological target: T42, PEG2K-CNP17
# [43] = biological target: T43, Analog M: CNP22, N-methyl-L9, …
# [44] = biological target: T44, Analog CS: GQEHPNARKYKGANPK-CNP22 …
# [45] = biological target: T45, Analog A: CNP22, C6-CH2-NH (reduced …)
# [46] = biological target: T46, Analog CK: GQPREPQVYTGANQQ-CNP22, K4R …
# [47] = biological target: T47, Analog CG: GANSS-CNP22, K4R
protein,measurement,setting,value
B1,NEP cleavage t1/2,[1],1.33 h
same,NEP cleavage t1/2,[2],> 2.67 h
same,NEP cleavage t1/2,[3],> 2.67 h
same,NEP cleavage t1/2,[4],> 2.67 h
same,NEP cleavage t1/2,[5],> 2.67 h
same,NEP cleavage t1/2,[6],≥ 2.67 h
same,NEP cleavage t1/2,[7],2 h
same,NEP cleavage t1/2,[8],> 2.67 h
same,NEP cleavage t1/2,[9],> 2.67 h
same,NEP cleavage t1/2,[10],1 h
same,NEP cleavage t1/2,[11],1.33 h
same,NEP cleavage t1/2,[12],> 2.67 h
same,NEP cleavage t1/2,[13],> 2.67 h
same,NEP cleavage t1/2,[14],1.13 h
same,NEP cleavage t1/2,[15],1.13 h
same,NEP cleavage t1/2,[16],> 2.67 h
same,NEP cleavage t1/2,[17],> 2.67 h
same,NEP cleavage t1/2,[18],≥ 2.67 h
same,NEP cleavage t1/2,[19],0.75 h and 1.08 h
same,NEP cleavage t1/2,[20],2.25 h
same,NEP cleavage t1/2,[21],> 2.67 h
same,NEP cleavage t1/2,[22],1.33 h
same,NEP cleavage t1/2,[23],1.33 h
same,NEP cleavage t1/2,[24],0.5 h
same,NEP cleavage t1/2,[25],> 2.67 h
same,NEP cleavage t1/2,[26],≥ 2.67 h
same,NEP cleavage t1/2,[27],1.33 h
same,NEP cleavage t1/2,[28],> 2.67 h
same,NEP cleavage t1/2,[29],> 2.67 h
same,NEP cleavage t1/2,[30],1.08 h
same,NEP cleavage t1/2,[31],2.17 h
same,NEP cleavage t1/2,[32],1.13 h
same,NEP cleavage t1/2,[33],2.33 h
same,NEP cleavage t1/2,[34],< 0.333 h
same,NEP cleavage t1/2,[35],1.33 h
same,NEP cleavage t1/2,[36],1.33 h
same,NEP cleavage t1/2,[37],2.5 h
same,NEP cleavage t1/2,[38],> 2.67 h
same,NEP cleavage t1/2,[39],≥ 2.67 h
same,NEP cleavage t1/2,[40],1.33 h
same,NEP cleavage t1/2,[41],1.5 h
same,NEP cleavage t1/2,[42],> 2.67 h
same,NEP cleavage t1/2,[43],> 2.67 h
same,NEP cleavage t1/2,[44],> 2.67 h
same,NEP cleavage t1/2,[45],0.917 h
same,NEP cleavage t1/2,[46],≥ 2.67 h
same,NEP cleavage t1/2,[47],1.58 h
